{"source": "paper PMC4533228", "about": "(Cell Reports, 2015)", "binders": {"B1": {"name": "recombinant Ub-interacting motif (UIM) of Rpn10 (domain or fragment)", "chain": "MLGLGASDFEFGVDPSADPELALALRVSMEEQRQRQEEEARRAAAASAAEAGIATTGTEDSDDALLKMTISQQEFGRTGLPDLSSMTEEEQIAYAMQMSLQGAEFGQAESA"}}, "biological_target": "T1, polyUb-E6AP (resin-bound E6AP autoubiquitinated with K48-linked polyubiquitin chains) (UniProt Q05086 1-875; P0CG48 1-76, K48-linked polyubiquitin chains of undefined length attached by autoubiquitination; sites not stated | ubiquitins joined to each other by K48 isopeptide linkages and to E6AP; chain length undefined)", "T1 construct": "HECT E3 ligase E6AP; ubiquitin, the mature 76-residue protein, wild type; Covalent conjugate held on resin; also called K48-polyUb conjugates; polyubiquitinated E6AP; source: E3 enzyme expressed in E. coli and purified", "experiment": "pull-down; resin-bound polyUb-E6AP and polyUb-Ube2SΔ incubated with 100 nM purified Rpn10-UIM, hHR23A or hHR23B for 30 min at 4°C, washed; bound proteins by immunoblot for His (Rpn10) or hHR23A/B", "conditions": "both partners purified"}
{"binder": "B1", "values": [{"measurement": "fold binding relative to K11 chains (polyUb-Ube2SΔ), ImageJ quantification", "value": "~4", "unit": "fold"}]}
